{"source": "patent US20140044738A1", "about": "(AstraZeneca / MedImmune, published 2014)", "key": {"[1]": {"target": "human PD-1, full length, expressed on the cell surface (human) (UniProt Q15116)", "sequence (Q15116 25-288)": "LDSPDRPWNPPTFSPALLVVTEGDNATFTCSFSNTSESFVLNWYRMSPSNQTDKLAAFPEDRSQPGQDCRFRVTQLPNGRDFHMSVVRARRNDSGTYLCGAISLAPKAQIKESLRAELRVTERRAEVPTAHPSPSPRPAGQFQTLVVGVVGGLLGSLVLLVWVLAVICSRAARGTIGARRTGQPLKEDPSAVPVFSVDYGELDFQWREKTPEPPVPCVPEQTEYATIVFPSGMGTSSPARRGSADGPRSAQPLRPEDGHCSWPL", "experiment": "flow cytometry: human primary CD4 T cells, CD45RA low; PD-1 as the cells express it"}, "[2]": {"target": "human PD-1, full length, expressed on the cell surface (human) (UniProt Q15116)", "experiment": "flow cytometry: human primary CD4 T cells, CD45RA high; PD-1 as the cells express it"}, "[3]": {"target": "human PD-1, full length, expressed on the cell surface (human) (UniProt Q15116)", "experiment": "flow cytometry: human primary CD4 T cells, CD45RA med; PD-1 as the cells express it"}, "[4]": {"target": "human PD-1, full length, expressed on the cell surface (human) (UniProt Q15116)", "experiment": "flow cytometry: human primary CD8 T cells, CD45RA low; PD-1 as the cells express it"}, "[5]": {"target": "human PD-1, full length, expressed on the cell surface (human) (UniProt Q15116)", "experiment": "flow cytometry: human primary CD8 T cells, CD45RA high; PD-1 as the cells express it"}, "[6]": {"target": "human PD-1, full length, expressed on the cell surface (human) (UniProt Q15116)", "experiment": "flow cytometry: human primary CD8 T cells, CD45RA med; PD-1 as the cells express it"}, "[7]": {"target": "T1, human B7-H1, full length, expressed on the cell surface (human, UniProt Q9NZQ7 19-290)", "T1 construct": "whole, on cells; also called CHO-hB7-H1; CHO-B7-H1 cells", "T1 sequence (Q9NZQ7 19-290)": "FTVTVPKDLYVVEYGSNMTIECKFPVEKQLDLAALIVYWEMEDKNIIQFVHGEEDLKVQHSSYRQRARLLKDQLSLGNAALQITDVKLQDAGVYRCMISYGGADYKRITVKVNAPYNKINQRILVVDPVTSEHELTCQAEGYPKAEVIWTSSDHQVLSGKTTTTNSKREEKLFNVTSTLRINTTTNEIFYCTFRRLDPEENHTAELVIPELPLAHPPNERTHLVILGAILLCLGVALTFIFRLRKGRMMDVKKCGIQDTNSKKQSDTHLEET", "experiment": "flow cytometry on CHO cells expressing human B7-H1, median fluorescence intensity"}, "[8]": {"target": "T2, human PD-1, full length, expressed on the cell surface (human, UniProt Q15116 25-288)", "T2 construct": "whole, on cells; also called CHO-hPD-1; CHO-hPD1", "T2 sequence (Q15116 25-288)": "as the sequence (Q15116 25-288) above", "experiment": "cell-based competition: CHO-hPD1 cells, antibody 30 min, then 10 µg/ml APC-labeled B7-DC-Fc; axis 100 to 0 without a unit (text: 0-0.1 mg/ml)", "method": "A cell-based competition assay was performed by incubating 50,000 CHO-hPD1 cells for 30 minutes with anti-PD-1 antibody (present at concentrations ranging from 0-0.1 mg/ml). […] The competition was repeated at a fixed antibody concentration of 20 μg/mL (FIG. 11)."}, "human PD-1-Fc [9]": {"target": "T3, human PD-1-Fc (human, UniProt Q15116 25-167, limits assumed, biotinylated in the B7-DC blocking ELISA)", "T3 construct": "also called hPD-1-Fc; biotinylated PD-1-Fc", "T3 sequence (Q15116 25-167 limits assumed)": "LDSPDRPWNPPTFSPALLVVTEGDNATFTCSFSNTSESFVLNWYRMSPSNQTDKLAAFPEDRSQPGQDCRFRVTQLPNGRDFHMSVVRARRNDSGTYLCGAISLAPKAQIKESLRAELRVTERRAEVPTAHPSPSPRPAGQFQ", "experiment": "ELISA: hybridoma supernatant on immobilised rhPD-1/Fc, anti-mouse IgG", "method": "Splenocytes from anti-PD-1 positive animals were fused with myeloma cells following standard protocol. The resulting murine hybridomas were screened for those that express high affinity human PD-1-immunoreactive monoclonal antibodies. Antibodies were additionally evaluated to determine whether they were IgG or IgM antibodies. […] Hybridoma supernatants were then placed in contact with the support, and the presence of anti-PD-1 antibody was determined using labeled anti-mouse IgG or anti-mouse IgM."}, "human PD-1-Fc [10]": {"target": "T3, human PD-1-Fc", "experiment": "blocking, flow cytometry, by paragraph 273: the construct binds hPD-1-Fc and blocks its binding to hB7-H1 expressed by CHO cells (the legend paragraph 64 calls it a binding curve on CHO.hPD-1 cells; the curve falls)", "parameters": "unit not given here"}, "[11]": {"target": "T4, human PD-1 (form in the assay not stated) (human, UniProt Q15116 25-167, limits assumed)", "T4 construct": "Used for the kinetic constants and EC50 values whose assay format is not described", "T4 sequence (Q15116 25-167 limits assumed)": "as above", "experiment": "method not stated"}, "[12]": {"target": "T2, human PD-1, full length, expressed on …", "experiment": "cell-based or functional assay"}, "[13]": {"target": "T4, human PD-1 (form in the assay not …)", "experiment": "PD-1-specific binding at 0 to approximately 350 nM antibody (FIG. 20); format not stated"}, "[14]": {"target": "human PD-1, full length, expressed on the cell surface (human) (UniProt Q15116)", "experiment": "flow cytometry: CHO cells with full-length human PD-1 pre-incubated with Ctl Ig, then hB7-DC mIg + a-mIg-APC; a-mIg-APC alone MFI=10"}}}
{"molecule": "SYNAGIS (antibody)", "values": [{"measurement": "number over the gate of positive cells", "setting": "[1]", "value": 2.1}, {"measurement": "number over the gate of positive cells", "setting": "[2]", "value": 1.4}, {"measurement": "number over the gate of positive cells", "setting": "[3]", "value": 1.1}, {"measurement": "number over the gate of positive cells", "setting": "[4]", "value": 1.6}, {"measurement": "number over the gate of positive cells", "setting": "[5]", "value": 1.5}, {"measurement": "number over the gate of positive cells", "setting": "[6]", "value": 1.6}]}
{"molecule": "Anti-Human B7-H1 Clone 1E12 (antibody, V domains shown, Murine hybridoma IgG) VH: EVKLQESGPSLVKPSQTLSLTCSVTGYSITSDYWNWIRKFPGNKLEYVGYISYTGSTYYNPSLKSRISITRDTSKNQYYLQLNSVTSEDTATYYCARYGGWLSPFDYWGQGTTLTVSS VL: DIVMTQSHKLMSTSVGDRVSITCKASQDVGTAVAWYQQKPGQSPKLLIYWASTRHTGVPDRFTGSGSGTDFTLTISNVQSEDLADYFCQQDSSYPLTFGAGTKVELK", "values": [{"measurement": "MFI", "setting": "[7]", "value": 56200}]}
{"molecule": "Anti-Human B7-H1 Clone 1F4 (antibody, V domains shown, Murine hybridoma IgG) VH: EVQLQESGPGLVAPSQSLSITCTVSGFSLTTYSINWIRQPPGKGLEWLGVMWAGGGTNSNSVLKSRLIISKDNSKSQVFLKMNSLQTDDTARYYCARYYGNSPYYAIDYWGQGTSVTVSS VL: DIVTTQSHKLMSTSVGDRVSITCKASQDVGTAVAWYQQKPGQSPKLLIYWASTRHTGVPDRFTGSGSGTDFTLTISNVQSEDLADYFCQQDSSYPLTFGAGTKVELK", "values": [{"measurement": "MFI", "setting": "[7]", "value": 62000}]}
{"molecule": "Anti-Human B7-H1 Clone 3D10 (antibody, V domains shown, Murine hybridoma IgG) VH: EVQLQQSGPDLVTPGASVRISCQASGYTFPDYYMNWVKQSHGKSLEWIGDIDPNYGGTTYNQKFKGKAILTVDRSSSTAYMELRSLTSEDSAVYYCARGALTDWGQGTSLTVSS VL: QIVLSQSPAILSASPGEKVTMTCRASSSVSYIYWFQQKPGSSPKPWIYATFNLASGVPARFSGSGSGTSYSLTISRVETEDAATYYCQQWSNNPLTFGAGTKLELK", "values": [{"measurement": "MFI", "setting": "[7]", "value": 53100}]}
{"molecule": "Anti-Human PD-1 Clone 1E3 (antibody, IgG1, V domains shown, Murine hybridoma antibody, IgG1/kappa) VH: EVQLQQSGPVLVKPGASVKMSCKASGYTFTDYYMNWVKQSHGKSLEWIGNINPYNGGTTYNQKFKGKATLTVDKSSRTAYMEINSLTSEDSAVYYCARGRIYDGSLDYWGQGTALTVSS VL: DIQMTQFPSSLCASQGGKVTVTCKASQDINNYMAWYQHKPGKGPRLLIHYTSTLLSGIPSRFSGSGSGRDYSFSISNLEPEDIATYYCLQYDNLWTFGGGTKLEIK", "values": [{"measurement": "binding result", "setting": "[8]", "value": "binds"}, {"measurement": "binding result", "setting": "human PD-1-Fc [9]", "value": "binds"}]}
{"molecule": "1H3 Construct (chimeric murine anti-human PD-1 Fab regions of antibody 1H3 and a human IgG1 Fc region) (antibody, V domains shown, also called 1H3 anti-human PD-1 chimeric antibody; chimeric 1H3) VH: EVQLVESGGGLVKPGGSLKLSCAASGFTFSDYGMHWVRQAPEKGLEWVAYISSGSYTIYYTDTVKGRFTISRDNAKNTLFLQMTSLRSEDTAMYYCARRGYGSFYEYYFDYWGQGTTLTVSS VL: QIVLTQSPALMSASPGEKVTMTCSASSSVSYMYWYQQKPRSSPKPWIYLTSNLASGVPARFSGSGSGTSYSLTISSMEAEDAATYYCQQWSSNPFTFGSGTKLEIK", "values": [{"measurement": "IC50 (read off the curve)", "setting": "human PD-1-Fc [10]", "value": "~100"}, {"measurement": "Kd", "setting": "[11]", "value": 2.19, "unit": "nM"}, {"measurement": "koff", "setting": "[11]", "value": 0.000161, "unit": "s⁻¹"}, {"measurement": "kon", "setting": "[11]", "value": 73400, "unit": "M⁻¹ s⁻¹"}, {"measurement": "T cell proliferation", "setting": "[12]", "value": "~7", "unit": "fold"}, {"measurement": "EC50", "setting": "[13]", "value": 3, "unit": "nM"}]}
{"molecule": "h1H3 Var 2 (antibody, V domains shown, Humanized variable domains LC1_1 / HC1_2) VH: EVQLVESGGGLVQPGGSLRLSCAASGFTFSDYGMHWVRQAPGKGLEWVAYISSGSYTIYYADSVKGRFTISRDNAKNTLYLQMSSLRAEDTAVYYCARRGYGSFYEYYFDYWGQGTTVTVSS VL: EIVLTQSPATLSLSPGERATLSCRASSSVSYMYWYQQKPGQAPRLLIYLASNRATGIPARFSGSGSGTDYTLTISSLEPEDFAVYYCQQWSSNPFTFGQGTKLEIK", "values": [{"measurement": "EC50", "setting": "[13]", "value": 3, "unit": "nM"}]}
{"molecule": "h1H3 Var 3 (antibody, V domains shown, Humanized variable domains LC1_1 / HC1_3) VH: EVQLVESGGGLVQPGGSLRLSCAASGFTFSDYGMHWVRQAPGKGLEWVAYISSGSYTIYSADSVKGRFTISRDNAKNTLYLQMSSLRAEDTAVYYCARRGYGSFYEYYFDYWGQGTTVTVSS VL: EIVLTQSPATLSLSPGERATLSCRASSSVSYMYWYQQKPGQAPRLLIYLASNRATGIPARFSGSGSGTDYTLTISSLEPEDFAVYYCQQWSSNPFTFGQGTKLEIK", "values": [{"measurement": "EC50", "setting": "[13]", "value": 3, "unit": "nM"}]}
{"molecule": "h1H3 Var 6 (antibody, V domains shown, Humanized variable domains LC1_2 / HC1_3) VH: EVQLVESGGGLVQPGGSLRLSCAASGFTFSDYGMHWVRQAPGKGLEWVAYISSGSYTIYSADSVKGRFTISRDNAKNTLYLQMSSLRAEDTAVYYCARRGYGSFYEYYFDYWGQGTTVTVSS VL: QIVLTQSPATLSLSPGERATLSCSASSSVSYMYWYQQKPGQAPRLLIYLTSNRATGIPARFSGSGSGTDYTLTISSLEPEDFAVYYCQQWSSNPFTFGQGTKLEIK", "values": [{"measurement": "EC50", "setting": "[13]", "value": 3, "unit": "nM"}]}
{"molecule": "h1H3 Var 4 (antibody, V domains shown, Humanized variable domains LC1_2 / HC1_1) VH: EVQLVESGGGLVQPGGSLRLSCAASGFTFSDYGMHWVRQAPGKGLEWVSYISSGSSTIYYADSVKGRFTISRDNAKNTLYLQMSSLRAEDTAVYYCARRGYGSFYEYYFDYWGQGTTVTVSS VL: QIVLTQSPATLSLSPGERATLSCSASSSVSYMYWYQQKPGQAPRLLIYLTSNRATGIPARFSGSGSGTDYTLTISSLEPEDFAVYYCQQWSSNPFTFGQGTKLEIK", "values": [{"measurement": "EC50", "setting": "[13]", "value": 6, "unit": "nM"}]}
{"molecule": "h1H3 Var 5 (antibody, V domains shown, Humanized variable domains LC1_2 / HC1_2) VH: EVQLVESGGGLVQPGGSLRLSCAASGFTFSDYGMHWVRQAPGKGLEWVAYISSGSYTIYYADSVKGRFTISRDNAKNTLYLQMSSLRAEDTAVYYCARRGYGSFYEYYFDYWGQGTTVTVSS VL: QIVLTQSPATLSLSPGERATLSCSASSSVSYMYWYQQKPGQAPRLLIYLTSNRATGIPARFSGSGSGTDYTLTISSLEPEDFAVYYCQQWSSNPFTFGQGTKLEIK", "values": [{"measurement": "EC50", "setting": "[13]", "value": 3, "unit": "nM"}]}
{"molecule": "h1H3 Var 1 (antibody, V domains shown, Humanized variable domains LC1_1 / HC1_1) VH: EVQLVESGGGLVQPGGSLRLSCAASGFTFSDYGMHWVRQAPGKGLEWVSYISSGSSTIYYADSVKGRFTISRDNAKNTLYLQMSSLRAEDTAVYYCARRGYGSFYEYYFDYWGQGTTVTVSS VL: EIVLTQSPATLSLSPGERATLSCRASSSVSYMYWYQQKPGQAPRLLIYLASNRATGIPARFSGSGSGTDYTLTISSLEPEDFAVYYCQQWSSNPFTFGQGTKLEIK", "values": [{"measurement": "EC50", "setting": "[13]", "value": 6, "unit": "nM"}]}
{"molecule": "B7-DC-Fc (Fc fusion, part only; not given: Fc part, human, UniProt Q9BQ51 20-220, looked up, part only, APC-labeled or biotinylated in the cell-based assays) chain, part: LFTVTVPKELYIIEHGSNVTLECNFDTGSHVNLGAITASLQKVENDTSPHRERATLLEEQLPLGKASFHIPQVQVRDEGQYQCIIIYGVAWDYKYLTLKVKASYRKINTHILKVPETDEVELTCQATGYPLAEVSWPNVSVPANTSHSRTPEGLYQVTSVLRLKPPPGRNFSCVFWNTHVRELTLASIDLQSQMEPRTHPT", "values": [{"measurement": "MFI", "setting": "[14]", "value": 2930}]}
{"molecule": "Anti-Human B7-H1 Clone 3B6 (antibody, V domains shown, Murine hybridoma IgG) VL: DIVMTQSPAIMSASPGEKVTMTCSASSSIRYMHWYQQKPGTSPKRWISDTSKLTSGVPARFSGSGSGTSYALTISSMEAEDAATYYCHQRSSYPWTFGGGTKLEIK V domain: EVKLQESGPSLVKPGASVKLSCKASGYTFTSYDINWVKQRPGQGLEWIGWIFPRDNNTKYNENFKGKATLTVDTSSTTAYMELHSLTSEDSAVYFCTKENWVGDFDYWGQGTTLTLSS", "values": [{"measurement": "MFI", "setting": "[7]", "value": 59600}]}
